Source: US9969998B2, “Compositions of adenosine deaminase-2 (ADA2), variants thereof and methods of using same” (Halozyme, Inc., priority 2014, dated 2018)
Entries after “also recorded” stand apart in the source; their conditions may differ.

System: KLN205 murine lung cancer tumor
Assay: Tumor growth inhibition of combination therapy with anti-PD-1, KLN205 syngeneic tumor model
Type: in vivo, DBA/2 mice
Details: study day 14, PEG-K374D 0.3 mg/kg IV biweekly, α-PD-1 2 mg/kg IP biweekly
Description: KLN205 syngeneic tumor models were produced by injecting thirty-two (32) DBA/2 mice with 5×10^5 KLN205 murine lung cancer tumor cells (ATCC CRL-1453), in 0.1 mL injection volume per animal, subcutaneously. Tumor bearing mice were staged into treatment groups when the average tumor size reached approximately 100 mm^3.
For treatment, animals were randomized into 4 groups (n=8/group): 1) saline vehicle control, 2) PEG-K374D, 3) α-PD-1 antibody (Clone RMP1-14, Cat. No. BE0146; BioXCell, West Lebanon, N.H.), or 4) PEG-K374D+α-PD-1. PEG-K374D was dosed intravenously biweekly at 0.3 mg/kg, and α-PD-1 was dosed intraperitoneally biweekly at 2 mg/kg). The sequence of dosing in the combination group was PEG-K374D immediately followed by α-PD-1.
where “Tn” is the average tumor volume for the treatment group at day “n” after the final dose of PEG-K374D and α-PD-1 or control; “T0” is the average tumor volume in that treatment group at day 0, before treatment; “Cn” is the average tumor volume for the corresponding control group at day “n”; and “C0” is the average tumor volume in the control group at day 0, before treatment.

B1: PEG-K374D: rHuADA2-K374D (SEQ ID NO:20) PEGylated on surface exposed lysines with linear PEG-20K (conjugate)
chain: IDETRAHLLLKEKMMRLGGRLVLNTKEELANERLMTLKIAEMKEAMRTLIFPPSMHFFQAKHLIERSQVFNILRMMPKGAALHLHDIGIVTMDWLVRNVTYRPHCHICFTPRGIMQFRFAHPTPRPSEKCSKWILLEDYRKRVQNVTEFDDSLLRNFTLVTQHPEVIYTNQNVVWSKFETIFFTISGLIHYAPVFRDYVFRSMQEFYEDNVLYMEIRARLLPVYELSGEHHDEEWSVKTYQEVAQKFVETHPEFIGIKIIYSDHRSKDVAVIAESIRMAMGLRIKFPTVVAGFDLVGHEDTGHSLHDYKEALMIPAKDGVKLPYFFHAGETDWQGTSIDRNILDALMLNTTRIGHGFALSKHPAVRTYSWDKDIPIEVCPISNQVLKLVSDLRNHPVATLMATGHPMVISSDDPAMFGAKGLSYDFYEVFMGIGGMKADLRTLKQLAMNSIKYSTLLESEKNTFMEIWKKRWDKFIADVATK
modifications: linear PEG-20K on surface lysines; human ADA2 K371D, mature numbering
Average Tumor Volume: 264.56 mm^3 | Tumor Growth Inhibition: inhibited tumor growth; also recorded: greater tumor growth inhibition than either α-PD-1 treatment alone or the PEG-K374D+α-PD-1 combination therapy | Tumor Growth Inhibition (vs vehicle): 78%
